Measurements taken from paper PMC5663869 (2017).
Where no end group is shown, it is not given here.

Tests used:
BAZ2B BRD = BAZ2B BRD (human, UniProt Q9UIF8 1-2168); assay: ITC
BAZ2B PHD–BRD = BAZ2B PHD–BRD (human, UniProt Q9UIF8 1-2168); assay: ITC
BAZ2B PHD–BRD, sequence (Q9UIF8 whole entry): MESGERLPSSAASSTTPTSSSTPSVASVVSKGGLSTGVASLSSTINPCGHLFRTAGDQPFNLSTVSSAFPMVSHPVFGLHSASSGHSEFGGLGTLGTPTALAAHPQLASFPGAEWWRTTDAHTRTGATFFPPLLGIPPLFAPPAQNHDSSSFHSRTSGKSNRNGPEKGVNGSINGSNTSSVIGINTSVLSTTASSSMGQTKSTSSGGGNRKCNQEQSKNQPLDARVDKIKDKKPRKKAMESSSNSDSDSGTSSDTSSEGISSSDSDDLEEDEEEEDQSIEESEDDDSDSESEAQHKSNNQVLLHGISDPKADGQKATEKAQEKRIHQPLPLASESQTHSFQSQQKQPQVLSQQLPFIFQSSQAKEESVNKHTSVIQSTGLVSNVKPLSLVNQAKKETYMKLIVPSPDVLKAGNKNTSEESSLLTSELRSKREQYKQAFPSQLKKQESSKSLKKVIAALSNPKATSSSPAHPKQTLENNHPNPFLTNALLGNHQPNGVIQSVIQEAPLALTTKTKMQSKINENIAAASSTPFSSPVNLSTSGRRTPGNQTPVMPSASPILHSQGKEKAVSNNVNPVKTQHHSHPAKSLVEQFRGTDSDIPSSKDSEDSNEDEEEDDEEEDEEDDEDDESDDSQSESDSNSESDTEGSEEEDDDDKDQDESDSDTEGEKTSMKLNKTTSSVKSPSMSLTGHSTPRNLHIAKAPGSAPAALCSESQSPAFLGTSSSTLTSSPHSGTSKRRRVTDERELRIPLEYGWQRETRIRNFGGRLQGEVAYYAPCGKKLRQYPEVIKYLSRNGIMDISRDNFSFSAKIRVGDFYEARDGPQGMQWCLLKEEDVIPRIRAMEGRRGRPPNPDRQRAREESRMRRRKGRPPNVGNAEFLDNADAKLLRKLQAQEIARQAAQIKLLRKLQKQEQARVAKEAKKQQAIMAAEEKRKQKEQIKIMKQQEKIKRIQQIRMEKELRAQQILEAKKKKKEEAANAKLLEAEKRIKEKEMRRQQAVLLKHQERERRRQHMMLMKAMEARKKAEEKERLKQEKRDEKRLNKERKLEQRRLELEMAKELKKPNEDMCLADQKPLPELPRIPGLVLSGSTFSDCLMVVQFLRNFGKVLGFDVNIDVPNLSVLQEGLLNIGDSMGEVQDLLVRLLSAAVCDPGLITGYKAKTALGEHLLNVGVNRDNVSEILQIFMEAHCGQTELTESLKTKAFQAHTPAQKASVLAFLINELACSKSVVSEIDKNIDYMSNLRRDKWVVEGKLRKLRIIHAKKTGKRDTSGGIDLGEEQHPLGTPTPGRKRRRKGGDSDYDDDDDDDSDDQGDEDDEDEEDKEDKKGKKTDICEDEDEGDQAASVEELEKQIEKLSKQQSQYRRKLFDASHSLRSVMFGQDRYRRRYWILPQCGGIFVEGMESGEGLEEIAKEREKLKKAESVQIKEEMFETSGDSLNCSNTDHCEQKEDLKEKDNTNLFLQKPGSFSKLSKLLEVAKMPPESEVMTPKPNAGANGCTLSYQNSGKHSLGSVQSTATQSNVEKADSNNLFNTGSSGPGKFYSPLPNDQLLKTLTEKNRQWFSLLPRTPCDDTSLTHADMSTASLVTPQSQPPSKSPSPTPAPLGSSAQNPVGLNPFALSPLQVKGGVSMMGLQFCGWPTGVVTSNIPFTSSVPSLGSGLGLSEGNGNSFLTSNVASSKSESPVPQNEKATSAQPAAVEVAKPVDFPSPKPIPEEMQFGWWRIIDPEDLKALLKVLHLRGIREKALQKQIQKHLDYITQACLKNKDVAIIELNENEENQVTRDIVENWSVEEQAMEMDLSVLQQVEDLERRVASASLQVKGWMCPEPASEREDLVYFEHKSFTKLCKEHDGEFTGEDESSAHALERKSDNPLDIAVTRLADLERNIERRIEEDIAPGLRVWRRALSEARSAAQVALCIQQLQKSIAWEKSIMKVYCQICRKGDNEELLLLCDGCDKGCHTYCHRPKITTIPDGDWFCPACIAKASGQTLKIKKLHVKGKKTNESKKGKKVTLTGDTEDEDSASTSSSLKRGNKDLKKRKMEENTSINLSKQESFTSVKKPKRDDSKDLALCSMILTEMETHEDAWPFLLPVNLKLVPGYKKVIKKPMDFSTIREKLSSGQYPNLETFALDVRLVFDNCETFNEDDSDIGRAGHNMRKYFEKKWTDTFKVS

BAZ2B BRD, sequence (Q9UIF8 whole entry): as above

B1: histone H3(11–21aa)K14ac peptide (peptide)
peptide: TGGK(Ac)APRKQLA
For B1, the Kd (BAZ2B BRD) was 8.2 µM and the Kd (BAZ2B PHD–BRD) was 10 µM.
